{
  "source": "paper PMC3037662",
  "about": "(The Journal of Biological Chemistry, 2010)",
  "molecules": {"B1": {"name": "NT-MtrC, N-terminal-truncated (Δ1–34) MtrC, His-tagged (domain or fragment, N. gonorrhoeae FA19, UniProt P43505 35-412, looked up)", "chain": "GQPAGREAPAPVVGVVTVHPQTVALTVELPGRLESLRTADVRAQVGGIIQKRLFQEGSYVRAGQPLYQIDSSTYEAGLESARAQLATAQATLAKADADLARYKPLVSADAISKQEYDAAVTAKRSAEASVKAAQAAIKSAGINLNRSRITAPISGFIGQSKVSEGTLLNAGDTTVLATIRQTNPMYVNVTQSASEVMKLRRQIAEGKLLAADGAIAVGIKFDDGTVYPEKGRLLFADPTVDESTGQITLRAAVSNDQNILMPGLYVRVLMDQVAADNAFIVPQQAVTRGAKDTVMIVNAQGGMEPREVTVAQQQGTNWIVTSGLKDGDKVVVEGISIAGMTGAKKVTPKEWAPSENQAAAPQAGVQTASEAKPASEAK"}, "B2": {"name": "MtrC α-helical coiled-coil hairpin domain (residues 103–183), His-tagged (domain or fragment)", "chain": "IDSSTYEAGLESARAQLATAQATLAKADADLARYKPLVSADAISKQEYDAAVTAKRSAEASVKAAQAAIKSAGINLNRSRI"}},
  "key": {"[1]": {"biological_target": "MtrE, His-tagged (wild type) (N. gonorrhoeae FA19) (UniProt Q51006)", "assay": "native MS"}, "MtrD, His-tagged": {"biological_target": "T1, MtrD, His-tagged (N. gonorrhoeae FA19, UniProt Q51073 1-1067)", "T1 sequence (looked up)": "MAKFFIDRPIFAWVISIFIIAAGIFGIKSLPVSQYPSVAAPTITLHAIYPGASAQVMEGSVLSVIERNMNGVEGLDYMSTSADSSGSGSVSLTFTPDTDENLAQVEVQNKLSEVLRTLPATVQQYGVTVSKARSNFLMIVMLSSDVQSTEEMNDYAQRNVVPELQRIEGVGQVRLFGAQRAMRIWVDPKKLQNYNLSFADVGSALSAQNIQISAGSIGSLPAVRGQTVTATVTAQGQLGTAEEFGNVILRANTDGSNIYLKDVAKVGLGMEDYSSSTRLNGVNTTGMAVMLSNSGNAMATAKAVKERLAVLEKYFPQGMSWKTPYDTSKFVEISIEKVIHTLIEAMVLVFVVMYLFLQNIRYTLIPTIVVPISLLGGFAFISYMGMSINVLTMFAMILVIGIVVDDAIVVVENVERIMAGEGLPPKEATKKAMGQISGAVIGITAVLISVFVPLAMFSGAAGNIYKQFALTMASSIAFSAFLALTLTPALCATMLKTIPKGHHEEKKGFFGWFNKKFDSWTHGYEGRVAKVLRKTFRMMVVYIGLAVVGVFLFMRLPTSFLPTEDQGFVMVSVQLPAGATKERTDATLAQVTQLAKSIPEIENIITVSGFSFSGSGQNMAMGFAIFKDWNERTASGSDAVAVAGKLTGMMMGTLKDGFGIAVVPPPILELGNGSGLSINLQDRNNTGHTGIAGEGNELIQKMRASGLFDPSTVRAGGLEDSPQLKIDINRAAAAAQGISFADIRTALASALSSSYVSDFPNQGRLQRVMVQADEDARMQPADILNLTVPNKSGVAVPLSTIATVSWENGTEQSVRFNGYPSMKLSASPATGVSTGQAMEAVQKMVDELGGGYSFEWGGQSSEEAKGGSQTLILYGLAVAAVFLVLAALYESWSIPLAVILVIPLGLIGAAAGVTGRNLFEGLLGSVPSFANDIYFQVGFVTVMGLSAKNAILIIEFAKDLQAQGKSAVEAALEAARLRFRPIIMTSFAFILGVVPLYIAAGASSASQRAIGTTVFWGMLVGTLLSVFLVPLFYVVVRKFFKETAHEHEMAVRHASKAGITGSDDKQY", "assay": "ITC"}, "[2]": {"biological_target": "MtrE, His-tagged (wild type) (N. gonorrhoeae FA19) (UniProt Q51006)", "assay": "ITC"}, "[3]": {"biological_target": "MtrE E434K, His-tagged (N. gonorrhoeae FA19) (UniProt Q51006)", "assay": "ITC"}},
  "data": [
    {"molecule": "MtrE, His-tagged (wild type) (from UniProt Q51006 1-467) (natural protein)", "values": [
      {"measurement": "stoichiometry N", "setting": "[1]", "value": 3}
    ]},
    {"molecule": "B1", "values": [
      {"measurement": "Ka", "setting": "MtrD, His-tagged", "value": "1.2e+06", "unit": "M⁻¹"},
      {"measurement": "Kd", "setting": "MtrD, His-tagged", "value": "0.8 ± 0.7", "unit": "µM"},
      {"measurement": "dH", "setting": "MtrD, His-tagged", "value": "1.41 ± 0.318", "unit": "kcal/mol"},
      {"measurement": "Kd", "setting": "[2]", "value": 9.8, "unit": "µM"},
      {"measurement": "dH", "setting": "[2]", "value": -6.84, "unit": "kcal/mol"}
    ]},
    {"molecule": "B2", "values": [
      {"measurement": "Ka", "setting": "[3]", "value": "8.2e+06", "unit": "M⁻¹"},
      {"measurement": "Kd", "setting": "[3]", "value": 0.13, "unit": "µM"},
      {"measurement": "dH", "setting": "[3]", "value": -4.12, "unit": "kcal/mol"},
      {"measurement": "Ka1 (site 1 of a two-site fit)", "setting": "[2]", "value": 460000, "unit": "M⁻¹"},
      {"measurement": "Ka2 (site 2 of a two-site fit)", "setting": "[2]", "value": 3200, "unit": "M⁻¹"},
      {"measurement": "Kd of the first (high-affinity) site of a two-site fit", "setting": "[2]", "value": 2.2, "unit": "µM"},
      {"measurement": "dH1 (site 1 of a two-site fit)", "setting": "[2]", "value": -12, "unit": "kcal/mol"},
      {"measurement": "dH2 (site 2 of a two-site fit)", "setting": "[2]", "value": -62, "unit": "kcal/mol"},
      {"measurement": "dH of the first site of a two-site fit", "setting": "[2]", "value": -11, "unit": "kcal/mol"}
    ]}
  ]
}
